The source of these data is article PMC12990809.

Holding throughout (test): pulldown
The target in data set [1] is T1, TBPH (Drosophila melanogaster) (UniProt E1JGV0).
T1 sequence: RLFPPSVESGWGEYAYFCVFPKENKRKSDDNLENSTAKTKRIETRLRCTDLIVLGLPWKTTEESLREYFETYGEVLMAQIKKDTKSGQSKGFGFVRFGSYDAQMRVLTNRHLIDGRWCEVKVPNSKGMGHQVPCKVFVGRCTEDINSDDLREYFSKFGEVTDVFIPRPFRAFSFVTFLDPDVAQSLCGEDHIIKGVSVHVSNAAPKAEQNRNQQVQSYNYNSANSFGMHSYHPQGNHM
The note with it: 20 nM protein, 1.5 uM RNA pool; 20 mM HEPES pH 7.8, 70 mM KCl, 10 mM NaCl, 10% glycerol, 2 mM DTT, 0.1 ug/uL BSA; 30 min, 4 C.

For data set [2], the target named is T2, PK07890.1 (Cannabis sativa) (UniProt A0A7J6I7X4).
T2 sequence: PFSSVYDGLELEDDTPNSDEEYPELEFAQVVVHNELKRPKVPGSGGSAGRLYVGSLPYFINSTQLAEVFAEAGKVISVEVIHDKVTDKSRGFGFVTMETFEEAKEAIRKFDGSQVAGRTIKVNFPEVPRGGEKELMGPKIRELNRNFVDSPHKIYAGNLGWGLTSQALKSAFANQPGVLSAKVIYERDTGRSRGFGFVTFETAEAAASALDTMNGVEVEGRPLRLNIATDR
The following applies: 20 nM protein, 1.5 uM RNA pool; 20 mM HEPES pH 7.8, 70 mM KCl, 10 mM NaCl, 10% glycerol, 2 mM DTT, 0.1 ug/uL BSA; 30 min, 4 C.

For data set [3], the target named is T3, PFE0865c (Plasmodium falciparum) (UniProt Q8I3T5).
T3 sequence: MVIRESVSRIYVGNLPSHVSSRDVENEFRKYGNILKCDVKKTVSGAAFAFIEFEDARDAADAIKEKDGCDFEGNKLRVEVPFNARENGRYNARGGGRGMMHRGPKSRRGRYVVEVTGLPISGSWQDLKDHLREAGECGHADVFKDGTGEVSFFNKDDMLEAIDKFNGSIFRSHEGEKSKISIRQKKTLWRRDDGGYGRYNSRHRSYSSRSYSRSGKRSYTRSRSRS
The following applies: 20 nM protein, 1.5 uM RNA pool; 20 mM HEPES pH 7.8, 70 mM KCl, 10 mM NaCl, 10% glycerol, 2 mM DTT, 0.1 ug/uL BSA; 30 min, 4 C.

Data set [4] addresses T4, rsp-1 (Caenorhabditis elegans) (UniProt Q23121).
T4 sequence: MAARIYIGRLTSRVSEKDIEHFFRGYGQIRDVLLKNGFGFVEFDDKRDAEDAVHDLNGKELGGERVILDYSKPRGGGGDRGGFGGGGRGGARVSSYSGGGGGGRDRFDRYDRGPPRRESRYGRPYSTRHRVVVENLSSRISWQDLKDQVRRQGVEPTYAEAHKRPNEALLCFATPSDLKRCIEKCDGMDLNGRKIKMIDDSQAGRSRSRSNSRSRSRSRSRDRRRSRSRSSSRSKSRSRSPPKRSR
The note with it: 20 nM protein, 1.5 uM RNA pool; 20 mM HEPES pH 7.8, 70 mM KCl, 10 mM NaCl, 10% glycerol, 2 mM DTT, 0.1 ug/uL BSA; 30 min, 4 C.

The next data set addresses T5, ESRP1 (Homo sapiens) (UniProt Q6NXG1).
T5 sequence: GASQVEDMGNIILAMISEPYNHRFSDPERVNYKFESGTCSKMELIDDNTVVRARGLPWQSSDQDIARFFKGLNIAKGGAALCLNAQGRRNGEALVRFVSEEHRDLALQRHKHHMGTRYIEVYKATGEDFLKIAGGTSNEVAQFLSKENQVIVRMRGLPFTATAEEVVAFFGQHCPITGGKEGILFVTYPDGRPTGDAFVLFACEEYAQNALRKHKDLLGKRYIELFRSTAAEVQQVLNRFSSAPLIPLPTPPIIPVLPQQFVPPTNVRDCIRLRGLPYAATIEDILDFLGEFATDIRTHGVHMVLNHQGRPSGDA
The note with it: 20 nM protein, 1.5 uM RNA pool; 20 mM HEPES pH 7.8, 70 mM KCl, 10 mM NaCl, 10% glycerol, 2 mM DTT, 0.1 ug/uL BSA; 30 min, 4 C.

Data set [5] addresses lark (Drosophila melanogaster) (UniProt Q94901). The note with it: 20 nM protein, 1.5 uM RNA pool; 20 mM HEPES pH 7.8, 70 mM KCl, 10 mM NaCl, 10% glycerol, 2 mM DTT, 0.1 ug/uL BSA; 30 min, 4 C (protocol of this paper; not …); cited from earlier work.
The target of data set [6] is T6, RBFOX2 I153V (Homo sapiens) (UniProt O43251).
T6 sequence: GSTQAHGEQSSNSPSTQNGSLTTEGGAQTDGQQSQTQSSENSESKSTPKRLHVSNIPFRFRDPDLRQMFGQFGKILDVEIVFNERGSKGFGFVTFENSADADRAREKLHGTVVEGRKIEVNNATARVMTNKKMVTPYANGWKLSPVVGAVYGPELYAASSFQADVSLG
The following applies: 20 nM protein, 1.5 uM RNA pool; 20 mM HEPES pH 7.8, 70 mM KCl, 10 mM NaCl, 10% glycerol, 2 mM DTT, 0.1 ug/uL BSA; 30 min, 4 C.

For a further data set, the target named is ELAVL2 (Homo sapiens) (UniProt Q12926). The note with it: 20 nM protein, 1.5 uM RNA pool; 20 mM HEPES pH 7.8, 70 mM KCl, 10 mM NaCl, 10% glycerol, 2 mM DTT, 0.1 ug/uL BSA; 30 min, 4 C.
Sequence of ELAVL2 (Homo sapiens) (Q12926 1-189): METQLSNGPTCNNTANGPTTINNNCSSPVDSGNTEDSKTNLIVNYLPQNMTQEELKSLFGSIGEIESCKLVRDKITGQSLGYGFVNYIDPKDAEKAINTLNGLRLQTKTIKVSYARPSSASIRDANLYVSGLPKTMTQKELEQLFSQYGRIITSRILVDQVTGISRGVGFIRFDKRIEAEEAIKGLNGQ
Data set [7] deals with T7, U2B'' (Arabidopsis thaliana) (UniProt O22922).
T7 sequence: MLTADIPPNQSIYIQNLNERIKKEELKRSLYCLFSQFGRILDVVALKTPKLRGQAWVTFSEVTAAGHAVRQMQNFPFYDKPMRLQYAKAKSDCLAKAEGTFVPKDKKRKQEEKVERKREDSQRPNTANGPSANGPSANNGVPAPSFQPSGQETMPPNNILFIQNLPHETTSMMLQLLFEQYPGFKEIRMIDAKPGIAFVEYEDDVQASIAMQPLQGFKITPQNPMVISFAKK
The note with it: 20 nM protein, 1.5 uM RNA pool; 20 mM HEPES pH 7.8, 70 mM KCl, 10 mM NaCl, 10% glycerol, 2 mM DTT, 0.1 ug/uL BSA; 30 min, 4 C.

For data set [8], the target named is T8, cpb-2 (Caenorhabditis elegans) (UniProt Q18317).
T8 sequence: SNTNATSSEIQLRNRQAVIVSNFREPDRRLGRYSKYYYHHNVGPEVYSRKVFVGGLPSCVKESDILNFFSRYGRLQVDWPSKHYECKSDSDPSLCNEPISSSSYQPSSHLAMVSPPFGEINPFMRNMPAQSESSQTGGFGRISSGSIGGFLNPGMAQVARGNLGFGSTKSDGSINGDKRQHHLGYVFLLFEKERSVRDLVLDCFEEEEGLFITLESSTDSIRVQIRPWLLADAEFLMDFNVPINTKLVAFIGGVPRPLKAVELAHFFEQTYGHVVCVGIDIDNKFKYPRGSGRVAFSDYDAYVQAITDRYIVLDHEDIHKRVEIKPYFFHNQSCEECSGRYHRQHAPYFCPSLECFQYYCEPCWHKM
The following applies: 20 nM protein, 1.5 uM RNA pool; 20 mM HEPES pH 7.8, 70 mM KCl, 10 mM NaCl, 10% glycerol, 2 mM DTT, 0.1 ug/uL BSA; 30 min, 4 C.

Sequence of lark (Drosophila melanogaster) (Q94901 1-207): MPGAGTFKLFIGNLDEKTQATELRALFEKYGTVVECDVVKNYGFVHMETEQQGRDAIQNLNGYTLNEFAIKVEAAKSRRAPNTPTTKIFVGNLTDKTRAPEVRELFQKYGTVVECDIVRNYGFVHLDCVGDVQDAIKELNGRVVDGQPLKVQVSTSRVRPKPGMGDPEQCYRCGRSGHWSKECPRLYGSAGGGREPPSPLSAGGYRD

In data set [1], GANUGA [RNAcompete motif RNCMPT00776] had a binding signal (z-score (mean of top ten 7-mers)) of 9.14.
In [2], GAUACU [RNAcompete motif RNCMPT00790] gave a binding signal (z-score (mean of top ten 7-mers)) of 15.3.
Substance GAUGAAC [RNAcompete motif RNCMPT00800] came in with a binding signal (z-score (mean of top ten 7-mers)) in data set [3] of 6.53.
For the substance GGAGGAG [RNAcompete motif RNCMPT00801], in data set [4], the binding signal (z-score (mean of top ten 7-mers)) worked out at 9.02.
On to GGAUGGGG [RNAcompete motif RNCMPT00808], for which the binding signal (z-score (mean of top ten 7-mers)) in the data set with ESRP1 (Homo sapiens) came to 6.61.
Regarding UCGCGCG [RNAcompete motif RNCMPT00097], the binding signal (z-score (mean of top ten 7-mers)) in data set [5] is 15.5.
UGCAUG [RNAcompete motif RNCMPT00818]: the binding signal (z-score (mean of top ten 7-mers)) in data set [6] worked out at 26.3.
In turn, UUAUUUU [RNAcompete motif RNCMPT00814] had a binding signal (z-score (mean of top ten 7-mers)) in the data set with ELAVL2 (Homo sapiens) of 15.1.
Take UUGCACA [RNAcompete motif RNCMPT01660]: in data set [7], the binding signal (z-score (mean of top ten 7-mers)) was 14.2.
Substance UUUNUA [RNAcompete motif RNCMPT00794] had a binding signal (z-score (mean of top ten 7-mers)) in data set [8] of 14.9.
